Experimental data as given in patent EP4692114A1, “CALCITONIN ANALOGUE, AND DERIVATIVE THEREOF AND USE THEREOF” (Hangzhou Sciwind Biosciences Co., Ltd., priority 2023, dated 2024).
*1 amine or outer side, *2 acyl side, *3 side chain or, on linkers, in order; H or OH if unused. The star is where a group is joined. C22 diacid = O=C(O)CCCCCCCCCCCCCCCCCCCCC(=O)*; C20 diacid = O=C(O)CCCCCCCCCCCCCCCCCCC(=O)*; γGlu = O=C(O)[C@H](CCC(=O)[*:2])N[*:1]; AEEA = NCCOCCOCC(=O)O

T1: human amylin receptor (AMY3) on CHO-K1/Gal5/AMY3 cells (human, UniProt P30988 25-474; O60896 24-148)
T1 sequence (looked up) 1: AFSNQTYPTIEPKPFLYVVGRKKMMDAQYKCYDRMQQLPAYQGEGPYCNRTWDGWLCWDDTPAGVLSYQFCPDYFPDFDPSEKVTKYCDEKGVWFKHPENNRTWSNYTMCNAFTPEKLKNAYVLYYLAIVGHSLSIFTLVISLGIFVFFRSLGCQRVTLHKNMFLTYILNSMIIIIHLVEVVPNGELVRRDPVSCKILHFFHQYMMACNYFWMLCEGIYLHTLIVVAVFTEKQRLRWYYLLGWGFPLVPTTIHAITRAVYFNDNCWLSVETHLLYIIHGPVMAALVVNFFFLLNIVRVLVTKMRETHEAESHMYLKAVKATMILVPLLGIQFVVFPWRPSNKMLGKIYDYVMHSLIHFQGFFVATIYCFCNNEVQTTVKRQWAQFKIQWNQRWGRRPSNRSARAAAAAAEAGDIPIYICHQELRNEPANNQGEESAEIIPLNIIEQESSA
T1 sequence (looked up) 2: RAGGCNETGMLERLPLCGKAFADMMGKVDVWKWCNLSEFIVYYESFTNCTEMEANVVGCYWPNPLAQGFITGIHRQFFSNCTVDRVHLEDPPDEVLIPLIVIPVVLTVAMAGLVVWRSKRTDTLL

B1: calcitonin derivative M64 (peptide)
peptide: {C20 diacid-γGlu-AEEA-AEEA-AEEA-AEEA-AEEA-AEEA}-ASQLSTAVLGRLSEELHRLQDYPRTDVGSGSP-NH2
SMILES: CC(C)C[C@H](NC(=O)[C@H](CCCNC(=N)N)NC(=O)CNC(=O)[C@H](CC(C)C)NC(=O)[C@@H](NC(=O)[C@H](C)NC(=O)[C@@H](NC(=O)[C@H](CO)NC(=O)[C@H](CC(C)C)NC(=O)[C@H](CCC(N)=O)NC(=O)[C@H](CO)NC(=O)[C@H](C)NC(=O)COCCOCCNC(=O)COCCOCCNC(=O)COCCOCCNC(=O)COCCOCCNC(=O)COCCOCCNC(=O)COCCOCCNC(=O)CC[C@H](NC(=O)CCCCCCCCCCCCCCCCCCC(=O)O)C(=O)O)[C@@H](C)O)C(C)C)C(=O)N[C@@H](CO)C(=O)N[C@@H](CCC(=O)O)C(=O)N[C@@H](CCC(=O)O)C(=O)N[C@@H](CC(C)C)C(=O)N[C@@H](Cc1c[nH]cn1)C(=O)N[C@@H](CCCNC(=N)N)C(=O)N[C@@H](CC(C)C)C(=O)N[C@@H](CCC(N)=O)C(=O)N[C@@H](CC(=O)O)C(=O)N[C@@H](Cc1ccc(O)cc1)C(=O)N1CCC[C@H]1C(=O)N[C@@H](CCCNC(=N)N)C(=O)N[C@H](C(=O)N[C@@H](CC(=O)O)C(=O)N[C@H](C(=O)NCC(=O)N[C@@H](CO)C(=O)NCC(=O)N[C@@H](CO)C(=O)N1CCC[C@H]1C(N)=O)C(C)C)[C@@H](C)O
B2: calcitonin derivative M49 (peptide)
peptide: {C20 diacid-γGlu}-ASQLSTAVLGRLSQELHRLQDFPRTDVGSGSP-NH2
SMILES: CC(C)C[C@H](NC(=O)[C@H](CCCNC(=N)N)NC(=O)CNC(=O)[C@H](CC(C)C)NC(=O)[C@@H](NC(=O)[C@H](C)NC(=O)[C@@H](NC(=O)[C@H](CO)NC(=O)[C@H](CC(C)C)NC(=O)[C@H](CCC(N)=O)NC(=O)[C@H](CO)NC(=O)[C@H](C)NC(=O)CC[C@H](NC(=O)CCCCCCCCCCCCCCCCCCC(=O)O)C(=O)O)[C@@H](C)O)C(C)C)C(=O)N[C@@H](CO)C(=O)N[C@@H](CCC(N)=O)C(=O)N[C@@H](CCC(=O)O)C(=O)N[C@@H](CC(C)C)C(=O)N[C@@H](Cc1c[nH]cn1)C(=O)N[C@@H](CCCNC(=N)N)C(=O)N[C@@H](CC(C)C)C(=O)N[C@@H](CCC(N)=O)C(=O)N[C@@H](CC(=O)O)C(=O)N[C@@H](Cc1ccccc1)C(=O)N1CCC[C@H]1C(=O)N[C@@H](CCCNC(=N)N)C(=O)N[C@H](C(=O)N[C@@H](CC(=O)O)C(=O)N[C@H](C(=O)NCC(=O)N[C@@H](CO)C(=O)NCC(=O)N[C@@H](CO)C(=O)N1CCC[C@H]1C(N)=O)C(C)C)[C@@H](C)O
B3: calcitonin derivative M65 (peptide)
peptide: {C22 diacid-γGlu}-ASQLSTAVLGRLSEELHRLQDYPRTDVGSGSP-NH2
SMILES: CC(C)C[C@H](NC(=O)[C@H](CCCNC(=N)N)NC(=O)CNC(=O)[C@H](CC(C)C)NC(=O)[C@@H](NC(=O)[C@H](C)NC(=O)[C@@H](NC(=O)[C@H](CO)NC(=O)[C@H](CC(C)C)NC(=O)[C@H](CCC(N)=O)NC(=O)[C@H](CO)NC(=O)[C@H](C)NC(=O)CC[C@H](NC(=O)CCCCCCCCCCCCCCCCCCCCC(=O)O)C(=O)O)[C@@H](C)O)C(C)C)C(=O)N[C@@H](CO)C(=O)N[C@@H](CCC(=O)O)C(=O)N[C@@H](CCC(=O)O)C(=O)N[C@@H](CC(C)C)C(=O)N[C@@H](Cc1c[nH]cn1)C(=O)N[C@@H](CCCNC(=N)N)C(=O)N[C@@H](CC(C)C)C(=O)N[C@@H](CCC(N)=O)C(=O)N[C@@H](CC(=O)O)C(=O)N[C@@H](Cc1ccc(O)cc1)C(=O)N1CCC[C@H]1C(=O)N[C@@H](CCCNC(=N)N)C(=O)N[C@H](C(=O)N[C@@H](CC(=O)O)C(=O)N[C@H](C(=O)NCC(=O)N[C@@H](CO)C(=O)NCC(=O)N[C@@H](CO)C(=O)N1CCC[C@H]1C(N)=O)C(C)C)[C@@H](C)O
B4: calcitonin derivative M16 (peptide)
peptide: {C20 diacid-γGlu}-ASQLSTAVLGRLSQELHRLQDYPRTDSGSGSP-NH2
SMILES: CC(C)C[C@H](NC(=O)[C@H](CCCNC(=N)N)NC(=O)CNC(=O)[C@H](CC(C)C)NC(=O)[C@@H](NC(=O)[C@H](C)NC(=O)[C@@H](NC(=O)[C@H](CO)NC(=O)[C@H](CC(C)C)NC(=O)[C@H](CCC(N)=O)NC(=O)[C@H](CO)NC(=O)[C@H](C)NC(=O)CC[C@H](NC(=O)CCCCCCCCCCCCCCCCCCC(=O)O)C(=O)O)[C@@H](C)O)C(C)C)C(=O)N[C@@H](CO)C(=O)N[C@@H](CCC(N)=O)C(=O)N[C@@H](CCC(=O)O)C(=O)N[C@@H](CC(C)C)C(=O)N[C@@H](Cc1c[nH]cn1)C(=O)N[C@@H](CCCNC(=N)N)C(=O)N[C@@H](CC(C)C)C(=O)N[C@@H](CCC(N)=O)C(=O)N[C@@H](CC(=O)O)C(=O)N[C@@H](Cc1ccc(O)cc1)C(=O)N1CCC[C@H]1C(=O)N[C@@H](CCCNC(=N)N)C(=O)N[C@H](C(=O)N[C@@H](CC(=O)O)C(=O)N[C@@H](CO)C(=O)NCC(=O)N[C@@H](CO)C(=O)NCC(=O)N[C@@H](CO)C(=O)N1CCC[C@H]1C(N)=O)[C@@H](C)O
B5: calcitonin derivative M34 (peptide)
peptide: {C20 diacid-γGlu}-ASELSTAVLGRLSEELHRLEDYPRTDVGSGSP-NH2
SMILES: CC(C)C[C@H](NC(=O)[C@H](CCCNC(=N)N)NC(=O)CNC(=O)[C@H](CC(C)C)NC(=O)[C@@H](NC(=O)[C@H](C)NC(=O)[C@@H](NC(=O)[C@H](CO)NC(=O)[C@H](CC(C)C)NC(=O)[C@H](CCC(=O)O)NC(=O)[C@H](CO)NC(=O)[C@H](C)NC(=O)CC[C@H](NC(=O)CCCCCCCCCCCCCCCCCCC(=O)O)C(=O)O)[C@@H](C)O)C(C)C)C(=O)N[C@@H](CO)C(=O)N[C@@H](CCC(=O)O)C(=O)N[C@@H](CCC(=O)O)C(=O)N[C@@H](CC(C)C)C(=O)N[C@@H](Cc1c[nH]cn1)C(=O)N[C@@H](CCCNC(=N)N)C(=O)N[C@@H](CC(C)C)C(=O)N[C@@H](CCC(=O)O)C(=O)N[C@@H](CC(=O)O)C(=O)N[C@@H](Cc1ccc(O)cc1)C(=O)N1CCC[C@H]1C(=O)N[C@@H](CCCNC(=N)N)C(=O)N[C@H](C(=O)N[C@@H](CC(=O)O)C(=O)N[C@H](C(=O)NCC(=O)N[C@@H](CO)C(=O)NCC(=O)N[C@@H](CO)C(=O)N1CCC[C@H]1C(N)=O)C(C)C)[C@@H](C)O
B6: calcitonin derivative M17 (peptide)
peptide: {C20 diacid-γGlu}-ASQLSTAVLGRLSQELHRLQDYPRTQSGSGSP-NH2
SMILES: CC(C)C[C@H](NC(=O)[C@H](CCCNC(=N)N)NC(=O)CNC(=O)[C@H](CC(C)C)NC(=O)[C@@H](NC(=O)[C@H](C)NC(=O)[C@@H](NC(=O)[C@H](CO)NC(=O)[C@H](CC(C)C)NC(=O)[C@H](CCC(N)=O)NC(=O)[C@H](CO)NC(=O)[C@H](C)NC(=O)CC[C@H](NC(=O)CCCCCCCCCCCCCCCCCCC(=O)O)C(=O)O)[C@@H](C)O)C(C)C)C(=O)N[C@@H](CO)C(=O)N[C@@H](CCC(N)=O)C(=O)N[C@@H](CCC(=O)O)C(=O)N[C@@H](CC(C)C)C(=O)N[C@@H](Cc1c[nH]cn1)C(=O)N[C@@H](CCCNC(=N)N)C(=O)N[C@@H](CC(C)C)C(=O)N[C@@H](CCC(N)=O)C(=O)N[C@@H](CC(=O)O)C(=O)N[C@@H](Cc1ccc(O)cc1)C(=O)N1CCC[C@H]1C(=O)N[C@@H](CCCNC(=N)N)C(=O)N[C@H](C(=O)N[C@@H](CCC(N)=O)C(=O)N[C@@H](CO)C(=O)NCC(=O)N[C@@H](CO)C(=O)NCC(=O)N[C@@H](CO)C(=O)N1CCC[C@H]1C(N)=O)[C@@H](C)O
B7: calcitonin derivative M32 (peptide)
peptide: {C20 diacid-γGlu}-RSQLSTEVLGRLSQELHRLQDYPRTDVGSGSP-NH2
SMILES: CC(C)C[C@H](NC(=O)[C@H](CCCNC(=N)N)NC(=O)CNC(=O)[C@H](CC(C)C)NC(=O)[C@@H](NC(=O)[C@H](CCC(=O)O)NC(=O)[C@@H](NC(=O)[C@H](CO)NC(=O)[C@H](CC(C)C)NC(=O)[C@H](CCC(N)=O)NC(=O)[C@H](CO)NC(=O)[C@H](CCCNC(=N)N)NC(=O)CC[C@H](NC(=O)CCCCCCCCCCCCCCCCCCC(=O)O)C(=O)O)[C@@H](C)O)C(C)C)C(=O)N[C@@H](CO)C(=O)N[C@@H](CCC(N)=O)C(=O)N[C@@H](CCC(=O)O)C(=O)N[C@@H](CC(C)C)C(=O)N[C@@H](Cc1c[nH]cn1)C(=O)N[C@@H](CCCNC(=N)N)C(=O)N[C@@H](CC(C)C)C(=O)N[C@@H](CCC(N)=O)C(=O)N[C@@H](CC(=O)O)C(=O)N[C@@H](Cc1ccc(O)cc1)C(=O)N1CCC[C@H]1C(=O)N[C@@H](CCCNC(=N)N)C(=O)N[C@H](C(=O)N[C@@H](CC(=O)O)C(=O)N[C@H](C(=O)NCC(=O)N[C@@H](CO)C(=O)NCC(=O)N[C@@H](CO)C(=O)N1CCC[C@H]1C(N)=O)C(C)C)[C@@H](C)O

These binders were tested against T1, human amylin receptor (AMY3) on … (assay: cell-based or functional assay).

Row | EC50/nM, CRE-luciferase in amylin receptor/CRE-luc CHO cells | Binder
1 | 0.044 nM | B1
2 | 0.075 nM | B2
3 | 0.017 nM | B3
4 | 0.025 nM | B4
5 | 0.058 nM | B5
6 | 0.042 nM | B6
7 | 0.03 nM | B7
